The data set is described as follows: soluble on expression in E. coli; label from the status in PepcDB or PDB records.
Regarding “MPFIYRRRVQFYETDAQGIVHHSNYFRYFEEARGEFLRSKGFPYSKMRDMGLEVVLLNAYCEYKKPLFYDDVFEVHLNLEELSRFTFTFSYIVFKEDIAVAKANTKHCMVKNGKIVSIPKEVLEVLKD”, the “soluble on expression in E. coli” value is reported as “soluble”. Turning to “MGHHHHHHSHMRKNESYLNQPAPPIPIPTLSLMGGCREHFENHWKGRARWLMPVIPALWEAKAGRSPEVRSSKPAWPTWRNPIFTKNTKISQVLELFLNYQSLICALEKQKRQKGSLAIFCWSFQGGCVSKRPDVPSLKSQKPKRKRITGRKRLSKGFWSLLFSNLGRF”, the “soluble on expression in E. coli” value is recorded as “not soluble”.

Regarding “MLTSFGQILRKLFCIDCSERLLDMADKLGVSVAFLSSVKIGKKSVPVGIFVRTLENFSQQDLAEFKKLLEKVGKKRGTLYRHVGKSYSRTFIYTSRTLKKHT”, the “soluble on expression in E. coli” value is given as “not soluble”.

As for “MSELNALLKDINGSLTATSESLERLSGIYSNSATDEIPESNQLHEHLFYDAKKPAEKVSLLSLKNGSMLGYINSLLMLIGNRLDDECKDPSAMDARERSIQHRVVLERGVKPLEKKLAYQLDKLTRAYVKMEKEYKDAEKRALEKSTLVNHSGNDDSEDDESSEDEIAYRPNTSGIINTNKKSSAYRVEETAKQENGEENDDNETGVYKPPKITAVLPPQQTHFEDRFDAREHKDRSNKSRMQAMEEYIRESSDQPDWSASIGADIVNHGRGGIKSLRDTEKERRVTSFEEDNFTRLNITNKAEKRKQKQRERNARMNVIGGEDFGIFSSKRKLEDSTSRRGAKKTRSAWDRAQRRL”, the “soluble on expression in E. coli” value is recorded as “soluble”. “MLEIEIVYGLPDRQVLKTMQLAEGTTVRAAALQSGLDGIFEDLNLHSAPLGIFGKAVKDDTPLRDGDRIEVYRPLLIDPKEARRKRVQNQEE”: the “soluble on expression in E. coli” value is listed as “not soluble”. As to “DRLTEEYGMHVYGIEFDEDRIIELRDRGYRIVAGDVTDPELWRRIELLDIPQLFAMSLPRYTDSDKVLARIHHDYPGATVATITQTRGREQALLTAGADVAVYLYEGVGDELADQAVAHLRQG”, the “soluble on expression in E. coli” value was “not soluble”. Next, “MGSDKIHHHHHHENLYFQGMLYHLVMLEPEGEGAMDRIMEAMAILDGLAPELPGLTEFRHGPNRDFEQKSERYPYGFLCTFTDKAALDAYAVHPTHQRAGGMLVASCRNGADGILVVDLEV”: “soluble”.

As for “MLEKVYVALIHYPIKGKDGSIISTAVTNLDVHDIARTARTYNLKGYYIVTNLRAQQDMVSKMLKFWREGFGSRYNPSRAESLKLVKLKSYLEDVLEDIESVEGERPLIFFTSAKKRENDISFEEGRRIIIETEKPVLILLGTGWGLPDEILEISDYVLEPIRAQSDFNHLSVRAAAAIIIDRLIGENYARRD”, the “soluble on expression in E. coli” value is “soluble”. Under “MSLGNYAKPIGTAPVTANPTDYSSALVCLNQYARTNRIVAPRIAIGRIADYTGKEESDGSGRKVTQGASLMAVSAFAKAGMPLVERFDTSVSEFELKYANNKLISDRPNPAPDAPADFRKILAGQVPGSDFYVIGGITELNYNIRSAGIDAYAGDKDTDGLKGNFRRRVFIMNIALDLRLVNTRTLEVVDVISYQKQVVGREVSAGVFDFLNGNLFDISAGRGALEPMQLAVRALIERATVEMAANLYGMPGPESCLRFDPFGDATVGQTGAFTPAYNNLGTNNAQTRDDPSRWNARRDPDIRDAKRGRYEGHHHHHH” stands “not soluble”; under “QYRHMIGQDAGYKAAGLYYVPIESLDQQQLPVVIEKLKALPEVEGYTLTTALPASSGQSGDNLIDPVTDRELINVADLFYVDEHYLKVYDIELLEGKNFDAATEKDREIMLSKKAATELARLMNWKDGVIGKNIILTSFGRVVIRGVYDDLMLRRQHLSPYPEKLPSAIVYGDDWLHYLTIRLRHDDARLLHRVNGILSEADPYKETSFLGVEMELLSRFEAAKTFRNT”, “not soluble”; under “MPVAVMADNAFSFRKLLDQCENQELEAPGGIATPPVYGQLLALYLLQNDMNNARYLWKRIPPAIKSANSELGGIWSVGQRIWQRDFPGIYTTINAHQWSETVQPIMEALRDATRRRAFALVSQAYTSIIADDFAAFVGLPVEEAVKGVLEQGWQADSTTRMVLPRKPAPGALDVSLNRFIPLSEPAPVPPIPNEQQLARLTDYVAFLEN”, “not soluble”.

As for “MARTVNLKGNPVTLVGPELKVGDRAPEAVVVTKDLQEKIVGGAKDVVQVIITVPSLDTPVCETETKKFNEIMAGMEGVDVTVVSMDLPFAQKRFCESFNIQNVTVASDFRYRDMEKYGVLIGEGALKGILARAVFIIDKEGKVAYVQLVPEITEEPNYDEVVNKVKELI”, the “soluble on expression in E. coli” value is listed as “not soluble”. Under “MAHHHHHHMAGSIRYFIDPRGALSPCAPAESSTPRAGGTKVPRTAEAKSSPNSPPELSSAVPLDGLCRAYEAADGRSGSAFLQVYSVGAHGLLSPEAKAVITGCTMAALRSRLSHLLGLLPHERLNGADSALGMSAVAVLNRYCRATAALPPPSPSAMQPRCGTDTDGGGMRGRGWVVTWALELVLCVAASRIVAGPPLATACPPLCVSDCGDVIMASLHFGLGVRLQRDAVAHHDERTIASSTPLTSAAERCPRYAALSVQLTECTPASSHPLDVRCAVDVTRVIYVNHIRSAQAHAEDGTDAFQRLARCEGGVSDPLSVATARDAWAEALQSYQASAIASQGGVLFVLTHDLSVQSGPAALLPLTVREERSRSHAAEMSHDVAFPPALRDHVLASVRVRSAPVYFNHILLCQAWSSDDVVAEAHARHWAEKLANDGALAPARVAVEWRASLLVSRAKGGAAVTSDAGGSQTLAPTPLQWVLYTARRQLVVAVANRSQVVLTGRRRGLDRTAAEATTKAAQFSPSALRALAEQCVKALPVARGLLGWHCPWPVPSCLQNTDTCTAIPSAAAVEEVLWTLRMLGKLRWRAAQLYEAAGDSAEQHRQLRALRADVQRWSSRRRARTLAADGTTLACEATAWTPTVEDVVCHVDDGDWGALTKELSSMLPPA” stands “not soluble”; under “MGSDKIHHHHHHMSSCGKNENPQEMNRRKFLKVFGGGAVASSAALYGCAPKNEPGAAVALGEVPTDKMTYRQHPTNGDKVSILGYGCMRWPLKQGSDGKDQIDQEAVNRLVDYAIEHGVNYFDTSPVYVQGMSEKATGIALARHPRNSYYLATKLSNFQNYTRENSLAMYRQSFRDLQTDYLDYYLLHSIGGGNGIELFNDRYINNGMLDFLVKEREAGRIRNLGWSFHGDVKVFDYVLDMGVKWDFVQIQLNYLDWKHASGRNVNADYLYGELEKRGIPAVIMEPLLGGRLSNVPDHIVARLKQQRPENSVASWAFRFAGSPDGVLTVLSGMTYMEHLQDNIRTYSPLIPVTDEEKDFLEETAQLMMKYPTIPCNDCKYCMPCPYALDIPGILLHYNKCVNEGNVPKSAQDENYAKARRAFLVGYDRSVPKLRQANHCTGCEQCNPHCPQGIDIPKEMQRIDKFVEELKVNG”, “not soluble”. Consider “MHHHHHHSSGVDLGTENLYFQSMKLIRVENFEAYFKKQQADSNCGFAEEYEDLKLVGISQPKYAAELAENRGKNRYNNVLPYDISRVKLSVQTHSTDDYINANYMPGYHSKKDFIATQGPLPNTLKDFWRMVWEKNVYAIIMLTKCVEQGRTKCEEYWPSKQAQDYGDITVAMTSEIVLPEWTIRDFTVKNIQTSESHPLRQFHFTSAPDHGVPDTTDLLINFRYLVRDYMKQSPPESPILVHCSAGVGRTGTFIAIDRLIYQIENENTVDVYGIVYDLRMHRPLMVQTEDQYVFLNQCVLDIVRSQKDSKVDLIY”, for which the “soluble on expression in E. coli” value is given as “soluble”. Consider “MAFDGCCPDCKLPGDDCPLIWGACNHAFHLHCILKWVNSQTSQAHCPMCRREWQFKE”, for which the “soluble on expression in E. coli” value is recorded as “soluble”. In the case of “MSHINLYSLPTDHKNMIRCRYCEKIYKIDNGSSGFIRHLRCKHPNVLYQMGAISNGKEYNLITKQETLSIDTNNEINLRDDDDFMMMKEFSSNQILVNFLSQLDLPTNDVNRVLGKRHRISPTPTINSSVTPNEEHEPDLKMFNSGDTLQNFLIDIDNHIRQKNQESQEAIGTGEESTSASALDMPSSQKESREPSPNSSMLDETNGGTETGDSSPTPFNPARPFGCVICPCSFPRVKDLTIHVTSVHRTRFRCNTCLAEFVQPQHLEHHYSISHAGTSTGTVVNT”, the “soluble on expression in E. coli” value was “not soluble”.

“MDPFKKPVRMLPIKGAPISRPISVFTFDVFNPPDDSDGSSTPDSVFEAETSPARTPPTPALILPYDYVSSEDSDDEAQEHADNRDTNDQVSESSTSEDSDSESESSCDDTQQTFVDDESTSSSGEEDRDDPFESNDQGAQGGSTSESEDDLPAILRAARETQSDSSSDSSGNSHKKRRVQEEESSRILKTPAPISGNGKYNWPWLD”: the “soluble on expression in E. coli” value was “soluble”. “MVCFASLFEEVSMHTCPLCHNQHTRHYFEDKHREYLQCEQCYLVFVNPDQRLDAETEKAHYDLHENNPEDIGYRRFLSRIADPITERISPQSNGIDFGCGPGPTLSLMLEEAGHNMALYDIYYHPDTAVLEKQYDFMTATEVIEHLYHPDVVWKQWLNLVKPGGWIGLMTKMVIDVEAFKSWHYKNDPTHVVFFSRDTFQFLAERDKLELEFIGNDVILLRKTQLEHHHHHH”: the “soluble on expression in E. coli” value is reported as “soluble”. For “MSLDAAGLARSTFFYHQQRLNVPDKHIDLKEAIVEVFTRTNRRYGYRRIHAHLRQDGWNVNHKLVYKLMDELGLKSKVRAKKRYNAYQGTVSHIAENVLDRCFTPDKPNTVWTSDVTEFRIAGTKVYLSPIMDLYDRSIVSYSVSTSPNTAFTSRSLKDAITSQSPGSGLLVHTDQGIQYQHSSWRDLITSIDGIQSMSRKGNCYDNAVMENFFGHLKSEMHHGESFDGLEHFRQALDGYIHWYNHERIQKRLKGLAPMQYRNQTLEPLTAEGHHHHHH”, the “soluble on expression in E. coli” value was “not soluble”. Turning to “MSVETILVVGGGISGITTAVEAAEVGYNTVLVEKKPYLGGRAAQLNKYFPKLCPPYCGLEMNFRRIKPNPKITVYTMTEVESVSGQEGNYSVRLKVSPRFVNEKCTACNACAEACPVERPNEFNFGMDKTKAAYLPHVLSYPMRYVIDRDACKDNSCDKCVKACKYNAIDLNMKPQTIEMKVGSIVYATGWNPYDATRMDNLGFGRVKNVITNMMMERLAAPNGPTGGKLLRPSDNKEVKKVVFVQCAGSRDENHLNYCSSICCMASLKQATYVRERIPDSQVVVAYIDLRAPGKYEEFLNKVEADANVKLVKGKVAKIEEDKATGGVILEFEDVEGGGKRHEHADMAVLATGMEPCVKANSMLSFEENGFINGGSAAGIYSTGVAKRPSDVTTAIQDATGMALKSIQSLVRSLEHHHHHH”, the “soluble on expression in E. coli” value is “not soluble”. Turning to “MSLELIEENDFDAIYIGNSKVMIKDYRGFVATLRILREKFPNAVLITDLEPFFYPLAVYLGVDAFDVRSLKIYSYEGLGFTPFSPVIWDRPNDPIEFAREMIKIIKIAIQEGKLRYLVENFLPTVMNVGILRIADKEHGDYLEKYTPVHDKTVVFISEHSISRPEVFRWRKRIEERFEPPKGIDLLLIFPCSAKKPYSRSRSHMMYRKVMKEALGEKVHRVHELVVTSPYGVVPREWEWLAKYDIVVTGHWSESEVRFAGELLAQTIEKYPDIPIVAHVEGGYREAVKYAMELVNRDVIFTAVGSSTISKESLDKLKKTLKEFDLRDAEKDYRRYRFYENVRKVFDYYFGLGAGEAVLPENAQIVGSKMLRLIVNNSQTGTFQEGVISVTPFGMQRIYDKLNSYWVEVDFDIRGDVFAAGVERADEGIRPNDIVGIVRDGRVVAVGRAVLSGEEMVRAKKGIAVRVRKRVKNKEGHHHHHH”, the “soluble on expression in E. coli” value was “not soluble”. With “RELIRHGAEVHAVMSEAATKIIHPYAMEFATGNPVITEITGFIEHVELAGEHENKADLILVCPATANTISKIACGIDDTPVTTVVTTAFPHIPIMIAPAMHETMYRHPIVRENIERLKKLGVEFIGPRIEEGKAKVASIDEIVYRVIKKLHKKTLEGKRVL”, the “soluble on expression in E. coli” value is reported as “not soluble”. Next, “ELYVVASPKSPIMEINKEQLSALYLGRNRVVGNTYINQVLDRSGTVRQRFFLQVTNMQESQINAYWAKLKFSGRLRAPESVVSEQELIAKLEENPFSIGYTDQVPSDALKVLLVL”: “not soluble”.

The values above are taken from the DeepSol protein solubility set.
